Earlier results, collected in publication PMC9405863.

Biological target: Calmodulin (Homo sapiens) (UniProt P0DP23)
Test: ITC

Substance | Kd
STIM1 K-rich domain (from UniProt Q13586) | 800 nM
STIM2 K-rich domain (from UniProt Q9P246) | 900 nM
